Results reported in publication PMC5762779, “The peroxisomal AAA-ATPase Pex1/Pex6 unfolds substrates by processive threading” (Nature Communications, 2018).
Changes are numbered by the printed parent chain. Numbers in names are those of the source.

B1: MBP-Pex15 1-309 (domain or fragment, S. cerevisiae, UniProt Q08215 1-309, looked up)
chain: MAASEIMNNLPMHSLDSSLRDLLNDDLFIESDESTKSVNDQRSEVFQECVNLFIKRDIKDCLEKMSEVGFIDITVFKSNPMILDLFVSACDIMPSFTKLGLTLQSEILNIFTLDTPQCIETRKIILGDLSKLLVINKFFRCCIKVIQFNLTDHTEQEEKTLELESIMSDFIFVYITKMRTTIDVVGLQELIEIFIFQVKVKLHHKKPSPNMYWALCKTLPKLSPTLKGLYLSKDVSIEDAILNSIDNKIQKDKAKSKGKQRGVKQKIHHFHEPMLHNSSEEQVKVEDAFNQRTSTDSRLQSTGTAPRKK
notes: not shown: MBP, N-terminal, kept
B2: MBP-Pex15 1-253 (domain or fragment, S. cerevisiae, UniProt Q08215 1-253, looked up)
chain: MAASEIMNNLPMHSLDSSLRDLLNDDLFIESDESTKSVNDQRSEVFQECVNLFIKRDIKDCLEKMSEVGFIDITVFKSNPMILDLFVSACDIMPSFTKLGLTLQSEILNIFTLDTPQCIETRKIILGDLSKLLVINKFFRCCIKVIQFNLTDHTEQEEKTLELESIMSDFIFVYITKMRTTIDVVGLQELIEIFIFQVKVKLHHKKPSPNMYWALCKTLPKLSPTLKGLYLSKDVSIEDAILNSIDNKIQKDK
notes: as for B1
B3: Pex15 30-309 (domain or fragment, S. cerevisiae, UniProt Q08215 30-309, looked up)
chain: ESDESTKSVNDQRSEVFQECVNLFIKRDIKDCLEKMSEVGFIDITVFKSNPMILDLFVSACDIMPSFTKLGLTLQSEILNIFTLDTPQCIETRKIILGDLSKLLVINKFFRCCIKVIQFNLTDHTEQEEKTLELESIMSDFIFVYITKMRTTIDVVGLQELIEIFIFQVKVKLHHKKPSPNMYWALCKTLPKLSPTLKGLYLSKDVSIEDAILNSIDNKIQKDKAKSKGKQRGVKQKIHHFHEPMLHNSSEEQVKVEDAFNQRTSTDSRLQSTGTAPRKK
notes: begins at E30 (primer 'Pex15 E30 forward', D1:p20); source: E. coli BL21*, purified (Ni-NTA, tag cleaved with PreScission protease, Superdex 200); not shown: His, C-terminal, cleaved
B4: Pex15 12-309 (domain or fragment, S. cerevisiae, UniProt Q08215 12-309, looked up)
chain: MHSLDSSLRDLLNDDLFIESDESTKSVNDQRSEVFQECVNLFIKRDIKDCLEKMSEVGFIDITVFKSNPMILDLFVSACDIMPSFTKLGLTLQSEILNIFTLDTPQCIETRKIILGDLSKLLVINKFFRCCIKVIQFNLTDHTEQEEKTLELESIMSDFIFVYITKMRTTIDVVGLQELIEIFIFQVKVKLHHKKPSPNMYWALCKTLPKLSPTLKGLYLSKDVSIEDAILNSIDNKIQKDKAKSKGKQRGVKQKIHHFHEPMLHNSSEEQVKVEDAFNQRTSTDSRLQSTGTAPRKK
notes: begins at M12 (primer 'Pex15 M12 forward', D1:p20); source: E. coli BL21*, purified (Ni-NTA, tag cleaved with PreScission protease, Superdex 200); not shown: His, C-terminal, cleaved
B5: Pex15 1-309 L22A L23A (domain or fragment, S. cerevisiae, UniProt Q08215 1-309, looked up)
chain: B1 chain with L22A, L23A
notes: also called Pex15 L22AL23A; source: E. coli BL21*, purified (Ni-NTA, tag cleaved with PreScission protease, Superdex 200); not shown: His, C-terminal, cleaved
B6: Pex15 43-309 (domain or fragment, S. cerevisiae, UniProt Q08215 43-309, looked up)
chain: SEVFQECVNLFIKRDIKDCLEKMSEVGFIDITVFKSNPMILDLFVSACDIMPSFTKLGLTLQSEILNIFTLDTPQCIETRKIILGDLSKLLVINKFFRCCIKVIQFNLTDHTEQEEKTLELESIMSDFIFVYITKMRTTIDVVGLQELIEIFIFQVKVKLHHKKPSPNMYWALCKTLPKLSPTLKGLYLSKDVSIEDAILNSIDNKIQKDKAKSKGKQRGVKQKIHHFHEPMLHNSSEEQVKVEDAFNQRTSTDSRLQSTGTAPRKK
notes: begins at S43 (primer 'Pex15 S43 forward', D1:p20); source: E. coli BL21*, purified (Ni-NTA, tag cleaved with PreScission protease, Superdex 200); not shown: His, C-terminal, cleaved

target: T1, Pex1-WB2/Pex6-WB2 mutant hexamer (Pex1-E798Q-Strep/His-Pex6-E832Q) (S. cerevisiae, UniProt P24004 1-1043; P33760 1-1030, E798Q | E832Q); experiment: pull-down; MBP-Pex15 1-309 or MBP-Pex15 1-253 with Pex1-WB2/Pex6-WB2; maltose elution, SDS-PAGE; conditions: both partners purified
T1 construct: Pex1, S. cerevisiae W303, Walker B D2 mutant; Pex6, S. cerevisiae W303, Walker B D2 mutant; also called Pex1-WB/Pex6-WB; ATPase-deficient Pex1/Pex6; source: E. coli BL21*, co-expressed, purified (Ni-NTA, Streptactin); copies: 3 + 3
T1 sequence (P24004 whole entry E798Q, one chain of several): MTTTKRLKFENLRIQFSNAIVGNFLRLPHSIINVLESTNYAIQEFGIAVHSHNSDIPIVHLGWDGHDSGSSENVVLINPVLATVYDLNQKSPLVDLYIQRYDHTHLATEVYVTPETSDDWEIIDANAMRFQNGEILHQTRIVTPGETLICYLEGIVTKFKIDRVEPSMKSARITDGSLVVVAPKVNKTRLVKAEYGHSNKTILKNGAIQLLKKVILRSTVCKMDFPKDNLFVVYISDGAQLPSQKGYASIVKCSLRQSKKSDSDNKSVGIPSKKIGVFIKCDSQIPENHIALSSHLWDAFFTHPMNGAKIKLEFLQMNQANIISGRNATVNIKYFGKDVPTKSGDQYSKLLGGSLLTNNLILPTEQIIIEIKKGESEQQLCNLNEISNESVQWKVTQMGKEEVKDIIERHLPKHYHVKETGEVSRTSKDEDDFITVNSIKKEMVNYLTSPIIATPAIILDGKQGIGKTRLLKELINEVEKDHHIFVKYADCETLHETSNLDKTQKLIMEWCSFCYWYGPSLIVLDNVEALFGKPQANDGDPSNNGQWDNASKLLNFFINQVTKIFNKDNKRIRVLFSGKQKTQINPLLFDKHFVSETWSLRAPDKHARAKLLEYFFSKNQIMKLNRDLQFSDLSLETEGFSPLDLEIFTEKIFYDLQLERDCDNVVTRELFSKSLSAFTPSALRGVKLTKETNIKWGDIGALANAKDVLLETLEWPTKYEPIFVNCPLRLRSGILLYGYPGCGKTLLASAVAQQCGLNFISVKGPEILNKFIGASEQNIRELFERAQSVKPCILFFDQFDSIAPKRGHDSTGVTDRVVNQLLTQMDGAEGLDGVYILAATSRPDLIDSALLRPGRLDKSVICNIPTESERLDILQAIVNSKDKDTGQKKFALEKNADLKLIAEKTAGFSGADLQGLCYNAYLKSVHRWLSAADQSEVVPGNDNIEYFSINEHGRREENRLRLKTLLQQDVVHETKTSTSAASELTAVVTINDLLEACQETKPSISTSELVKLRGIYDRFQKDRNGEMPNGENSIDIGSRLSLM

Binder	binding result
B1	binds
B2	binds

target: T2, Pex1-FLAG/His-Pex6 hexamer, wild type (S. cerevisiae, UniProt P24004 1-1043; P33760 1-1030); experiment: inhibition of ATPase activity (ATP/NADH coupled enzyme assay); apparent KD from the concentration-dependent inhibition of the ATPase activity of 5 nM Pex1/Pex6 by titrated Pex15; 5 mM ATP, 2 uM BSA; n = 3 technical replicates; conditions: both partners purified
T2 construct: Pex1, S. cerevisiae W303; Pex6, S. cerevisiae W303; Heterohexamer with alternating subunits; also called WT Pex1/Pex6; Pex1/Pex6; source: E. coli BL21*, co-expressed, purified (Ni-NTA, anti-FLAG, Superose6); copies: 3 + 3
T2 sequence (P24004 whole entry, chain 1 of 2): as the sequence (P24004 whole entry E798Q, one chain of several) above, with Q798E counted along it
T2 sequence (P33760 whole entry, chain 2 of 2): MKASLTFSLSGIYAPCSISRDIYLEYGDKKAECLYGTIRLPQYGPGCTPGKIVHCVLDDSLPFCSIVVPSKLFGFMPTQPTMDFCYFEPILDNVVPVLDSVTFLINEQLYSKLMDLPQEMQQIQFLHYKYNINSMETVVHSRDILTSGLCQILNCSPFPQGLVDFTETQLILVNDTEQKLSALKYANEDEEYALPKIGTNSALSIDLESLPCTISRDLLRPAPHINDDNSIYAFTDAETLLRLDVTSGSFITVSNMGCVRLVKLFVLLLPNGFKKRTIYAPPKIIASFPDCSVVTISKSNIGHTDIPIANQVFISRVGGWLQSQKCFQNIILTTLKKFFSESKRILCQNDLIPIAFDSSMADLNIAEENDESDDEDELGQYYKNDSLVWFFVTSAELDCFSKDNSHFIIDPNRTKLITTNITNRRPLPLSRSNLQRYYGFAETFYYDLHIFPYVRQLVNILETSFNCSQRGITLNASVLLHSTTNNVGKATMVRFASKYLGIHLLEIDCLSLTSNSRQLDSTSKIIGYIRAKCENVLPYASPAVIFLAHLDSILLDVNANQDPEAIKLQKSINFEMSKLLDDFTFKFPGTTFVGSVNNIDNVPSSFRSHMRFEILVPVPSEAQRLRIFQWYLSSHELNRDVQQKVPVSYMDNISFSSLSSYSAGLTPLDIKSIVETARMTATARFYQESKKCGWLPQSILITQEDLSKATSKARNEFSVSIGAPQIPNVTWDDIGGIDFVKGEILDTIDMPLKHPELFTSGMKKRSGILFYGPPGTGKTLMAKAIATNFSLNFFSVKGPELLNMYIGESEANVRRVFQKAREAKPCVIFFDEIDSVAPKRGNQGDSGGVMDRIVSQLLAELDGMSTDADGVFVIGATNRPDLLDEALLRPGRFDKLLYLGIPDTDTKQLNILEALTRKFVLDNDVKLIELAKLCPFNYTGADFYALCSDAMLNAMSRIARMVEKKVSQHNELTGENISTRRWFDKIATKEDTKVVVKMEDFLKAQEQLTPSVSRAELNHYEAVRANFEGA

Binder	Kd [µM]
B3	5.3
B4	0.86
B5	8.7
B6	5.6
